Laboratory results: publication PMC2607524, “The role of conserved residues of chagasin in the inhibition of cysteine peptidases” (Febs Letters, 2008)
Residue numbers refer to the chain shown, from its start. Names and notes keep the numbering of the source.

Columns and labels:
[1] = molecular target: human cathepsin L (human); assay: enzyme inhibition kinetics (Ki for tight-binding inhibitors); peptidase incubated with different chagasin concentrations for 15 min at room temperature, residual hydrolysis of 5 μM Z-Phe-Arg-MCA; Ki from Kiapp with KM 1.5, 2.5 and 60 μM for cruzipain, cathepsin L and papain; methods: RB buffer (50 mM Na2PO4, pH 6.5, 200 mM NaCl, 5 mM EDTA, 2.5 mM DTT), 25 °C; footnote of Table 2: 50 mM Na2HPO4, 100 mM NaCl, 5 mM EDTA, pH 6.5, 5% DMSO, 2.5 mM DTT, 28 °C
[2] = molecular target: T1, papain (UniProt P00784 134-345); assay: enzyme inhibition kinetics (Ki for tight-binding inhibitors); peptidase incubated with different chagasin concentrations for 15 min at room temperature, residual hydrolysis of 5 μM Z-Phe-Arg-MCA; Ki from Kiapp with KM 1.5, 2.5 and 60 μM for cruzipain, cathepsin L and papain; methods: RB buffer (50 mM Na2PO4, pH 6.5, 200 mM NaCl, 5 mM EDTA, 2.5 mM DTT), 25 °C; footnote of Table 2: 50 mM Na2HPO4, 100 mM NaCl, 5 mM …; conditions: both partners purified
T1 construct: source: bought: Sigma
T1 sequence (looked up): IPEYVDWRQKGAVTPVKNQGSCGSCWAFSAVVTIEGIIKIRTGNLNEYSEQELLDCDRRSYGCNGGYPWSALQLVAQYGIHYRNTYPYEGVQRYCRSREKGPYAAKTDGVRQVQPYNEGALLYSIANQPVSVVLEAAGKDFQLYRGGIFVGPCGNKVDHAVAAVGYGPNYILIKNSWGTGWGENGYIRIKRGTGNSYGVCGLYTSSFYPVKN

[3] = molecular target: T2, cruzipain (Trypanosoma cruzi, UniProt P25779 123-467); assay: as above; conditions: both partners purified
T2 construct: also called T. cruzi CP cruzipain; major cysteine peptidase of T. cruzi

Molecule: chagasin ΔT31–T32 (devoid of residues T31 and T32) (from UniProt Q966X9 1-110) (natural protein)
- Ki [1]: 2.2 nM

Molecule: chagasin T32V (from UniProt Q966X9 1-110) (natural protein)
- Ki [1]: 0.02 nM

Molecule: chagasin T31S (from UniProt Q966X9 1-110) (natural protein)
- Ki [1]: 0.0049 nM

Molecule: chagasin P30A (from UniProt Q966X9 1-110) (natural protein)
- Ki [1]: 0.045 nM

Molecule: chagasin T32Y (from UniProt Q966X9 1-110) (natural protein)
- Ki [1]: 0.0027 nM

Molecule: chagasin T31V (from UniProt Q966X9 1-110) (natural protein)
- Ki [1]: 0.0097 nM

Molecule: chagasin W93A (from UniProt Q966X9 1-110) (natural protein)
- Ki [1]: 0.825 nM

Molecule: chagasin T31A (from UniProt Q966X9 1-110) (natural protein)
- Ki [1]: 0.0039 nM

Molecule: chagasin T32S (from UniProt Q966X9 1-110) (natural protein)
- Ki [1]: 0.032 nM

Molecule: chagasin T32A (from UniProt Q966X9 1-110) (natural protein)
- Ki [1]: 0.014 nM

Molecule: chagasin T31A/T32A double mutant (from UniProt Q966X9 1-110) (natural protein)
- Ki [1]: 0.0018 nM

Molecule: chagasin T31Y (from UniProt Q966X9 1-110) (natural protein)
- Ki [1]: 0.0068 nM

B1: chagasin (recombinant His-tagged wild type) (natural protein)
chain: MSHKVTKAHNGATLTVAVGELVEIQLPSNPTTGFAWYFEGGTKESPNESMFTVENKYFPPDSKLLGAGGTEHFHVTVKAAGTHAVNLTYMRPWTGPSHDSERFTVYLKAN
notes: also called WT; wild type chagasin; source: E. coli M15/pRep4, purified (Ni metal chelate column, HQ ion exchange)
- Ki [2]: 0.005 ± 0.0007 nM
- Ki [3]: 0.0076 nM
- Ki [1]: 0.0073 nM

B2: chagasin P30A (natural protein)
chain: B1 chain with P30A
notes: pQE30 construct as m1; also called pGL1194; source: E. coli M15/pRep4, purified (Ni metal chelate column, HQ ion exchange)
- Ki [3]: 0.02 nM

B3: chagasin T31A (natural protein)
chain: B1 chain with T31A
notes: pQE30 construct as m1; also called pGL1209; source: E. coli M15/pRep4, purified (Ni metal chelate column, HQ ion exchange)
- Ki [3]: 0.317 nM

B4: chagasin T31A/T32A double mutant (natural protein)
chain: B1 chain with T31A, T32A
notes: pQE30 construct as m1; also called pGL1258; source: E. coli M15/pRep4, purified (Ni metal chelate column, HQ ion exchange)
- Ki [2]: 0.027 ± 0.0015 nM
- Ki [3]: 1.06 nM

B5: chagasin T31S (natural protein)
chain: B1 chain with T31S
notes: pQE30 construct as m1; also called pGL1299; source: E. coli M15/pRep4, purified (Ni metal chelate column, HQ ion exchange)
- Ki [3]: 0.011 nM

B6: chagasin T31V (natural protein)
chain: B1 chain with T31V
notes: pQE30 construct as m1; also called pGL1298; source: E. coli M15/pRep4, purified (Ni metal chelate column, HQ ion exchange)
- Ki [3]: 0.07 nM

B7: chagasin T31Y (natural protein)
chain: B1 chain with T31Y
notes: pQE30 construct as m1; also called pGL1210; source: E. coli M15/pRep4, purified (Ni metal chelate column, HQ ion exchange)
- Ki [3]: 0.747 nM

B8: chagasin T32A (natural protein)
chain: B1 chain with T32A
notes: pQE30 construct as m1; also called pGL1211; source: E. coli M15/pRep4, purified (Ni metal chelate column, HQ ion exchange)
- Ki [3]: 0.016 nM

B9: chagasin T32E (natural protein)
chain: B1 chain with T32E
notes: pQE30 construct as m1; also called pGL1197; source: E. coli M15/pRep4, purified (Ni metal chelate column, HQ ion exchange)
- Ki [3]: 0.011 nM

B10: chagasin T32S (natural protein)
chain: B1 chain with T32S
notes: pQE30 construct as m1; also called pGL1195; source: E. coli M15/pRep4, purified (Ni metal chelate column, HQ ion exchange)
- Ki [3]: 0.02 nM

B11: chagasin T32V (natural protein)
chain: B1 chain with T32V
notes: pQE30 construct as m1; also called pGL1196; source: E. coli M15/pRep4, purified (Ni metal chelate column, HQ ion exchange)
- Ki [3]: 0.193 nM

B12: chagasin T32Y (natural protein)
chain: B1 chain with T32Y
notes: pQE30 construct as m1; also called pGL1198; source: E. coli M15/pRep4, purified (Ni metal chelate column, HQ ion exchange)
- Ki [3]: 0.016 nM

B13: chagasin W93A (natural protein)
chain: B1 chain with W93A
notes: pQE30 construct as m1; also called pGL1199; source: E. coli M15/pRep4, purified (Ni metal chelate column, HQ ion exchange)
- Ki [3]: 0.031 nM

B14: chagasin Y89F (natural protein)
chain: B1 chain with Y89F
notes: pQE30 construct as m1; also called pGL1119; source: E. coli M15/pRep4, purified (Ni metal chelate column, HQ ion exchange)
- binding result [2]: binds
- Ki [3]: 0.02 nM

B15: chagasin Y89S (natural protein)
chain: B1 chain with Y89S
notes: pQE30 construct as m1; also called pGL1120; source: E. coli M15/pRep4, purified (Ni metal chelate column, HQ ion exchange)
- Ki [2]: 0.316 ± 0.017 nM
- Ki [3]: 0.025 nM

B16: chagasin ΔT31–T32 (devoid of residues T31 and T32) (natural protein)
chain: MSHKVTKAHNGATLTVAVGELVEIQLPSNPGFAWYFEGGTKESPNESMFTVENKYFPPDSKLLGAGGTEHFHVTVKAAGTHAVNLTYMRPWTGPSHDSERFTVYLKAN
notes: source: E. coli M15/pRep4, purified (Ni metal chelate column, HQ ion exchange)
- Ki [3]: 5.87 nM
